Drawing on patent US20030027314A1, this text covers Kd, Tm and delta G for five molecules.

Test [1] concerns the target c-Myc bHLH protein (murine) (UniProt P01108). As to the kind of experiment: heterodimer with c-Myc, study of FIG. 9 (method not given).
For a further test, the target named is T1, CREB (unmodified).
T1 sequence (chain, from a related filing, looked up): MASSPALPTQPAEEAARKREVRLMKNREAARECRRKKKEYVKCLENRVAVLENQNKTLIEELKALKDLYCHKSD
Put plainly: thermal melting curve, mixture (FIG. 3).

Test [2] addresses C/EBP bZIP domain (chimeric GCN4-C/EBP protein) (C/EBP part: 'present in rat liver'; GCN4 part: yeast). Put plainly: CD thermal melt, equimolar mixture, 150 mM KCl.
The target of the next test is c-Jun (unmodified). As to the kind of experiment: from thermal melts, Kd at 37 °C (FIG. 4).

B1: 0heptadMax (dimerization domain of Max without an acidic extension) (protein)
chain: ASMTGGQQMGRDPDLEELEDSFHSLRDSVPSLQGEKASRAQILDKATEYIQYMRRKNHTHQQDIDDLKRQNALLEQQVRALEKARSSAQLQT
On to B1, for which the Kd in test [1] was 0.6 nM.

B2: New4hepCREB (CREB with the new 4heptad acidic extension, asparagine changed to leucine) (designed binder)
chain: MDYKDDDDKHMASMTGGQQMGRDPDLEQRAEELARENEELEKEAEELEQELAELENRVAVLENQNKTLIEELKALKDLYCHKSD
As to B2, the melting temperature (Tm) with CREB (unmodified) was 69.5 °C.

B3: 3heptad-C/EBP (three heptad acidic extension appended onto the C/EBP leucine zipper) (designed binder, not shown: a dimerising Fc or GST)
chain: ASMTGGQQMGRDPGGGLARENEELEKEAEELEQENAELEQKVLELTSDNDRLRKRVEQLSRELDTLRGIFRQLPESSLVKAMGNCA
For B3, in test [2], the dissociation constant Kd was found to be 0.6 nM, the melting temperature (Tm) turned out to be 61 °C and the delta G at 25 °C was -12.6 kcal/mol.

B4: c-Jun (unmodified) (protein, from a related filing)
chain: PLSPIDMESQERIKAERKRMRNRIAASKCRKRKLERIARLEEKVKTLKAQNSELASTANMLREQVAQLKQKVMNHVNSGCQLMLTQQLQTF
Regarding B4, the equilibrium dissociation constant (Kd) in the test with c-Jun (unmodified) is 20000 nM.

B5: AcidMax (Max with a polyglutamic acid extension on the dimerization domain) (designed binder)
chain: MASMTGGQQMGRDPDEEEDDEEELEELEDSFHSLRDSVPSLQGEKASRAQILDKATEYIQYMRRKNHTHQQDIDDLKRQNALLEQQVRALEKARSSAQLQT
As to B5, in test [1], the Kd amounted to 0.002 nM.

What is called Kd is the equilibrium constant for the complex coming apart. As usually defined, the Tm is the temperature at which the thermal transition is half complete.
